US20040259172A1
Numbered stars: 1 amine (or outer) side, 2 acyl side, 3 side chain; on linkers, the order of the positions; unused ones are H or OH. Square brackets hold non-standard residues; d marks the D form. Ends that are not written are not given here. βAsp = O=C(O)[C@H](CC(=O)[*:2])N[*:1]

Target: mouse-anti-β-COMP sera (polyclonal antiserum specific for the human COMP derived sequence AQEDβSDH)
Assay: competitive ELISA: free peptide competes with biotinylated β-COMP on streptavidin plates for the mouse anti-β-COMP serum

| IC50 | Binder |
| --- | --- |
| 0.435 µg/mL | AQEDSDH [α-COMP peptide (non-isomerised (α) form of the COMP peptide)] |
| 0.038 µg/mL | AQE[βAsp]SDH |
